Data reported in patent publication US20210269512A1 (NOVOBIND LIVESTOCK THERAPEUTICS, published 2021).

T1: Cpa (phospholipase) (Clostridium perfringens, UniProt P0C216 29-398)
T1 sequence: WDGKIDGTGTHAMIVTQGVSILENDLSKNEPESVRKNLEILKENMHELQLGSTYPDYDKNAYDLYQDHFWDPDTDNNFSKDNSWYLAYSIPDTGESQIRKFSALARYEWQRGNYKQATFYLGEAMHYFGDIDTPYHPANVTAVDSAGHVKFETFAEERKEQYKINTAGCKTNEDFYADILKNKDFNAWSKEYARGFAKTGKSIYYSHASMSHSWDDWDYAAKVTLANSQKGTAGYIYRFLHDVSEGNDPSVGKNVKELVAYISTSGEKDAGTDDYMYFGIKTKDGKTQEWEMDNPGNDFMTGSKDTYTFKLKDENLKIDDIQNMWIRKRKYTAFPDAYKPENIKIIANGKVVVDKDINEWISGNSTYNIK


target: T1, Cpa (phospholipase); test: phage ELISA, coated antigen

Row | Binder | binding result
1 | NBX0338 (VHH) VHH: QVQLQESGGGLVQAGDSLRLSCATSGRSFSSYTMGWFRQTPGKEREFVAAISWSGTYYTDSVKGRFTISRDNAKNTVYLQMNSLKPEDTAVYYCAVGSRRLYYSSDINYWGQGTQVTVSS | binds
2 | NBX0329 (VHH) VHH: QVQLQESGGGLVQAGGSLRLSCATSGLTVSRYTMGWFRQTPGKDREFVAAISWSGTYYTDSVKGRFTISVDNAKNMVYLQMNSLKPEDTAVYYCAAGSRRLYYSNDINYWGQGTQVTVSS | binds
3 | NBX0339 (VHH) VHH: QVQLQESGGGLVQAGDSLRLSCATSGLTVSRYTMGWFRQTPGKEREFVAAISWSGTYYTDSVKGRFTISRDNAKNMVYLQMNSLKPEDTAVYYCAAGSRRLHYSSDINYWGQGTQVTVSS | binds
4 | NBX0330 (VHH) VHH: QVQLQESGGGLVQAGGSLRLSCAASSRTFSNYAMAWFRQTPGKEREFLATINGDTTFTIYADSVKGRFTISRDNAKNTLYLQMNSLKAEDTAVYYCAARQWNPTMRERDYGYWGQGTEVTVSS | binds
5 | NBX0340 (VHH) VHH: QVQLQESGGGLVQAGESLRLSCLAAGRTFSTSTLGWFRQAPGLEREFVAAIRYTSDYTARTTDYADSVKGRFAISRDYIKQAVYLQMNNLKPEDTAVYYCAAAKYGMGYSDPSGYTYWGQGTQVTVSS | binds
